# According to article doi:10.1101/2020.10.01.322123 (bioRxiv, 2020):
# Read-outs that look alike come from different tables or passages of the source.
# B1: CT^C1, untagged C-terminal tail of FGFR2 (the last 58 residues) (domain or fragment)
# chain: TTNEEYLDLSQPLEQYSPSYPDTRSSCSSGDDSVFSPDPMPYEPCLPQYPHINGSVKT
# modifications: Atto488 dye in the MST assays where CT is the labelled partner
# Tests used:
# [1] = target: KD^pY1, mono-phosphorylated FGFR2 kinase domain (UniProt P21802); test: MST
# JM-KD^pY1 [2] = target: JM-KD^pY1 (UniProt P21802); test: MST
# [3] = target: CT^C1, untagged C-terminal tail of FGFR2 (the last 58 residues) (UniProt P21802); test: MST
# JM-KD^pY1 [4] = target: JM-KD^pY1 (UniProt P21802); test: SPR
# [5] = target: CT^C1, untagged C-terminal tail of FGFR2 (the last 58 residues) (UniProt P21802); test: SPR
# [6] = target: FGFR2 juxtamembrane region (JM) (UniProt P21802); test: MST
# [7] = target: FGFR2 juxtamembrane region (JM) (UniProt P21802); test: MST; remark: listed apart in the source
# JM-KD^Y657/658F = JM-KD^Y657/658F (UniProt P21802-3 414-764, Y657/658F)
molecule,measurement,setting,value
CT peptide 801-815,Kd,[1],25.9 µM
JM peptide 407-420,fold weaker binding than peptide 414-430,[1],3 fold
JM peptide 414-430,Kd,[1],36.8 µM
JM-KD^pY1 (from UniProt P21802-3 414-764) (domain or fragment),Kd,JM-KD^pY1 [2],3.46 µM
same,Kd,[3],304 nM
same,Kd,JM-KD^pY1 [4],3.07 µM
same,Kd,[5],165 nM
"KD^pY1, mono-phosphorylated FGFR2 kinase domain (from UniProt P21802-3 465-764) (domain or fragment)",Kd,[1],0.112 µM
same,Kd,[3],3750 nM
same,Kd,[6],2510 nM
B1,Kd,[7],20.2 µM
same,Kd,JM-KD^Y657/658F,5.65 ± 1.9 µM
